In US20230242675A1 (SHANGHAI EPIMAB BIOTHERAPEUTICS, published 2023):

B1: HuEM0005-90-5 (antibody, human IgG1, V domains shown)
VH: EVQLVQSGAEVKKPGASVKVSCKASGYTFTSHSINWVRQATGQGLEWMGYMYIGNGYTEYNEKFKGRVTLTSNTSISTAYMELSSLRSEDTAVYYCAKITPVVAPYVMDYWGQGTSVTVSS
VL: DIQMTQSPSFLSASVGDRVTITCKASQDVGTAVAWYQQKPGKAPKLLIYWASTRHTGVPSRFSGSGSGTEFTLTISSLQPEDFATYYCQQYSSYPYTFGQGTKLEIK
B2: HuEM0005-90-1 (antibody, human IgG1, V domains shown)
VH: EVQLVQSGAEVKKPGASVKVSCKASGYTFTSHSINWVRQATGQGLEWMGYMYIGNGYTEYNEKFKGRVTLTSNTSISTAYMELSSLRSEDTAVYYCAKITPVVAPYVMDYWGQGTSVTVSS
VL: DIQLTQSPSFLSASVGDRVTITCKASQDVGTAVAWYQQKPGKAPKLLIYWASTRHTGVPSRFSGSGSGTEFTLTISSLQPEDFATYYCQQYSSYPYTFGQGTKLEIK
notes: measured without the G55A change
B3: HuEM0005-90-6 (antibody, human IgG1, V domains shown)
VH: EVQLVQSGAEVKKPGASVKVSCKASGYTFTSHSINWVRQATGQGLEWIGYMYIGNGYTEYNEKFKGRATLTSNTSISTAYMELSSLRSEDTAVYYCAKITPVVAPYVMDYWGQGTSVTVSS
VL: DIQMTQSPSFLSASVGDRVTITCKASQDVGTAVAWYQQKPGKAPKLLIYWASTRHTGVPSRFSGSGSGTEFTLTISSLQPEDFATYYCQQYSSYPYTFGQGTKLEIK
B4: HuEM0005-90-4 (antibody, human IgG1, V domains shown)
VH: EVQLVQSGAEVKKPGASVKVSCKTSGYTFTSHSINWVRQATGQGLEWIGYMYIGNGYTEYNEKFKGRATLTSNTSISTAYMELSSLRSEDTAVYYCAKITPVVAPYVMDYWGQGTSVTVSS
VL: DIQLTQSPSFLSASVGDRVTITCKASQDVGTAVAWYQQKPGKAPKLLIYWASTRHTGVPSRFSGSGSGTEFTLTISSLQPEDFATYYCQQYSSYPYTFGQGTKLEIK
B5: HuEM0005-90-3 (antibody, human IgG1, V domains shown)
VH: EVQLVQSGAEVKKPGASVKVSCKTSGYTFTSHSINWVRQATGQGLEWMGYMYIGNGYTEYNEKFKGRVTMTSNTSISTAYMELSSLRSEDTAVYYCAKITPVVAPYVMDYWGQGTSVTVSS
VL: DIQLTQSPSFLSASVGDRVTITCKASQDVGTAVAWYQQKPGKAPKLLIYWASTRHTGVPSRFSGSGSGTEFTLTISSLQPEDFATYYCQQYSSYPYTFGQGTKLEIK
B6: HuEM0005-90-2 (antibody, human IgG1, V domains shown)
VH: EVQLVQSGAEVKKPGASVKVSCKASGYTFTSHSINWVRQATGQGLEWIGYMYIGNGYTEYNEKFKGRATLTSNTSISTAYMELSSLRSEDTAVYYCAKITPVVAPYVMDYWGQGTSVTVSS
VL: DIQLTQSPSFLSASVGDRVTITCKASQDVGTAVAWYQQKPGKAPKLLIYWASTRHTGVPSRFSGSGSGTEFTLTISSLQPEDFATYYCQQYSSYPYTFGQGTKLEIK
B7: HuEM0005-87-1 (antibody, human IgG1, V domains shown)
VH: EVQLVQSGAEVKKPGASVKVSCKASGYTFTDYYINWVRQAPGQGLEWMGETIPNTGGTTYNQKFKARVTMTVDTSTSTVYMELSSLRSEDTAVYYCARYQSGSPFAYWGQGTTVTVSS
VL: DIVMTQSPDSLAVSLGERATINCKASQNVGTAVAWYQQKPGQPPKLLIYSASNRYTGVPDRFTGSGSGTDFTLTISSLQAEDVAVYYCQQHYSTPYTFGGGTKLEIK
notes: also called HuEM0005-87-l
B8: HuEM0005-87-5 (antibody, human IgG1, V domains shown)
VH: EVQLVQSGAEVKKPGASVKVSCKASGYSFTDYYINWVKQAPGQGLEWIGETIPNTGGTTYNQKFKAKATLTRDKSTSTAYMELKSLRSEDTAVYYCARYQSGSPFAYWGQGTTVTVSS
VL: DIVMTQSPDSLAVSLGERATINCKASQNVGTAVAWYQQKPGQPPKLLIYSASNRYTGVPDRFTGSGSGTDFTLTISSLQAEDVAVYYCQQHYSTPYTFGGGTKLEIK
B9: HuEM0005-87-4 (antibody, human IgG1, V domains shown)
VH: EVQLVQSGAEVKKPGASVKVSCKASGYSFTDYYINWVRQAPGQGLEWIGETIPNTGGTTYNQKFKAKATLTVDKSTSTAYMELSSLRSEDTAVYYCARYQSGSPFAYWGQGTTVTVSS
VL: DIVMTQSPDSLAVSLGERATINCKASQNVGTAVAWYQQKPGQPPKLLIYSASNRYTGVPDRFTGSGSGTDFTLTISSLQAEDVAVYYCQQHYSTPYTFGGGTKLEIK
B10: HuEM0005-87-2 (antibody, human IgG1, V domains shown)
VH: EVQLVQSGAEVKKPGASVKVSCKASGYTFTDYYINWVRQAPGQGLEWMGETIPNTGGTTYNQKFKARVTLTVDTSTSTVYMELSSLRSEDTAVYYCARYQSGSPFAYWGQGTTVTVSS
VL: DIVMTQSPDSLAVSLGERATINCKASQNVGTAVAWYQQKPGQPPKLLIYSASNRYTGVPDRFTGSGSGTDFTLTISSLQAEDVAVYYCQQHYSTPYTFGGGTKLEIK
B11: HuEM0005-87-12 (antibody, human IgG1, V domains shown)
VH: EVQLVQSGAEVKKPGASVKVSCKASGYTFTDYYINWVRQAPGQGLEWMGETIPNTGGTTYNQKFKARVTLTVDTSTSTVYMELSSLRSEDTAVYYCARYQSGSPFAYWGQGTTVTVSS
VL: EIVMTQSPATLSVSPGERATLSCKASQNVGTAVAWYQQKPGQAPRLLIYSASNRYTGVPARFSGSGSGTEFTLTISSLQSEDFAVYYCQQHYSTPYTFGGGTKLEIK
B12: HuEM0005-87-6 (antibody, human IgG1, V domains shown)
VH: EVQLVQSGAEVKKPGASVKVSCKASGYTFTDYYINWVRQAPGQGLEWMGETIPNTGGTTYNQKFKARVTMTVDTSTSTVYMELSSLRSEDTAVYYCARYQSGSPFAYWGQGTTVTVSS
VL: EIVMTQSPATLSVSPGERATLSCKASQNVGTAVAWYQQKPGQAPRLLIYSASNRYTGIPARFSGSGSGTEFTLTISSLQSEDFAVYYCQQHYSTPYTFGGGTKLEIK
B13: HuEM0005-87-10 (antibody, human IgG1, V domains shown)
VH: EVQLVQSGAEVKKPGASVKVSCKASGYSFTDYYINWVKQAPGQGLEWIGETIPNTGGTTYNQKFKAKATLTRDKSTSTAYMELKSLRSEDTAVYYCARYQSGSPFAYWGQGTTVTVSS
VL: EIVMTQSPATLSVSPGERATLSCKASQNVGTAVAWYQQKPGQAPRLLIYSASNRYTGIPARFSGSGSGTEFTLTISSLQSEDFAVYYCQQHYSTPYTFGGGTKLEIK
B14: HuEM0005-87-9 (antibody, human IgG1, V domains shown)
VH: EVQLVQSGAEVKKPGASVKVSCKASGYSFTDYYINWVRQAPGQGLEWIGETIPNTGGTTYNQKFKAKATLTVDKSTSTAYMELSSLRSEDTAVYYCARYQSGSPFAYWGQGTTVTVSS
VL: EIVMTQSPATLSVSPGERATLSCKASQNVGTAVAWYQQKPGQAPRLLIYSASNRYTGIPARFSGSGSGTEFTLTISSLQSEDFAVYYCQQHYSTPYTFGGGTKLEIK
B15: HuEM0005-87-8 (antibody, human IgG1, V domains shown)
VH: EVQLVQSGAEVKKPGASVKVSCKASGYTFTDYYINWVRQAPGQGLEWIGETIPNTGGTTYNQKFKARVTLTVDKSTSTVYMELSSLRSEDTAVYYCARYQSGSPFAYWGQGTTVTVSS
VL: EIVMTQSPATLSVSPGERATLSCKASQNVGTAVAWYQQKPGQAPRLLIYSASNRYTGIPARFSGSGSGTEFTLTISSLQSEDFAVYYCQQHYSTPYTFGGGTKLEIK
B16: HuEM0005-87-7 (antibody, human IgG1, V domains shown)
VH: EVQLVQSGAEVKKPGASVKVSCKASGYTFTDYYINWVRQAPGQGLEWMGETIPNTGGTTYNQKFKARVTLTVDTSTSTVYMELSSLRSEDTAVYYCARYQSGSPFAYWGQGTTVTVSS
VL: EIVMTQSPATLSVSPGERATLSCKASQNVGTAVAWYQQKPGQAPRLLIYSASNRYTGIPARFSGSGSGTEFTLTISSLQSEDFAVYYCQQHYSTPYTFGGGTKLEIK
B17: HuEM0005-87-3 (antibody, human IgG1, V domains shown)
VH: EVQLVQSGAEVKKPGASVKVSCKASGYTFTDYYINWVRQAPGQGLEWIGETIPNTGGTTYNQKFKARVTLTVDKSTSTVYMELSSLRSEDTAVYYCARYQSGSPFAYWGQGTTVTVSS
VL: DIVMTQSPDSLAVSLGERATINCKASQNVGTAVAWYQQKPGQPPKLLIYSASNRYTGVPDRFTGSGSGTDFTLTISSLQAEDVAVYYCQQHYSTPYTFGGGTKLEIK
B18: HuEM0005-87-11 (antibody, human IgG1, V domains shown)
VH: EVQLVQSGAEVKKPGASVKVSCKASGYTFTDYYINWVRQAPGQGLEWMGETIPNTGGTTYNQKFKARVTMTVDTSTSTVYMELSSLRSEDTAVYYCARYQSGSPFAYWGQGTTVTVSS
VL: EIVMTQSPATLSVSPGERATLSCKASQNVGTAVAWYQQKPGQAPRLLIYSASNRYTGVPARFSGSGSGTEFTLTISSLQSEDFAVYYCQQHYSTPYTFGGGTKLEIK
notes: also called HuEM0005-87-l l

Tests used:
[1] = target: T1, human PD-L1/His fusion protein (human, UniProt Q9NZQ7 19-239); assay: BLI off-rate; test group 1
T1 sequence (Q9NZQ7 19-239 limits assumed): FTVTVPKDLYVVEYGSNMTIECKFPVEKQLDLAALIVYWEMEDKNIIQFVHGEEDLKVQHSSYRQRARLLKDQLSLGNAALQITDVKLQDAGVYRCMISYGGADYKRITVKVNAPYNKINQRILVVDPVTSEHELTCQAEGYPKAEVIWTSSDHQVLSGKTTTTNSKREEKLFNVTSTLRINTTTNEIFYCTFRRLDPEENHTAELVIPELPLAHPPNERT
Experimental: (§1) Briefly, antibodies were characterized for affinities and binding kinetics by Octet®RED96 biolayer interferometry (Pall ForteBio LLC). Antibodies were captured by Anti-hIgG Fc Capture (AHC) Biosensors (Pall) at a concentration of 100 nM for 30 seconds. Sensors were then dipped into running buffer (1×pH 7.2 PBS, 0.05% Tween 20, 0.1% BSA) for 60 seconds to check baseline. Binding was measured by dipping sensors into a single concentration of recombinant human PD-L1/His fusion protein (Novoprotein). Dissociation was followed by dipping sensors into running buffer for 1200 seconds. The association and dissociation curves were fitted to a 1:1 Langmuir binding model using ForteBio Data Analysis software (Pall). […] The off-rate ratio serves as a data normalization. Accordingly, in each test group, the off-rate ratios of the humanized antibodies can be compared with that of the chimeric antibody, and the off-rate ratios of each of the humanized antibodies can be compared to one another within all test groups.

[2] = target: T1, human PD-L1/His fusion protein; assay: BLI Octet RED96, antibody on AHC sensor, single conc. PD-L1/His; test group 1
Experimental: as §1

[3] = target: T1, human PD-L1/His fusion protein; assay: BLI off-rate; test group 2
Experimental: as §1

[4] = target: T1, human PD-L1/His fusion protein; assay: BLI Octet RED96, antibody on AHC sensor, single conc. PD-L1/His; test group 2
Experimental: as §1

Binder | Off-Rate Ratio to that of EM0005-90c [1] [%] | koff [2] [s⁻¹] | Off-Rate Ratio to that of EM0005-87c [1] [%] | Off-Rate Ratio to that of EM0005-87c [3] [%] | koff [4] [s⁻¹]
B1 | 107 | 0.00027 |  |  | 
B2 | 102 | 0.000259 |  |  | 
B3 | 100 | 0.000254 |  |  | 
B4 | 97 | 0.000246 |  |  | 
B5 | 120 | 0.000304 |  |  | 
B6 | 90 | 0.000227 |  |  | 
B7 |  | 0.000937 | 64 |  | 
B8 |  | 0.000947 | 64 |  | 
B9 |  | 0.000768 | 52 |  | 
B10 |  | 0.000797 | 54 |  | 
B11 |  |  |  | 77 | 0.000798
B12 |  | 0.000998 | 68 |  | 
B13 |  |  |  | 96 | 0.000994
B14 |  |  |  | 84 | 0.000878
B15 |  |  |  | 81 | 0.000844
B16 |  |  |  | 68 | 0.000709
B17 |  | 0.000926 | 63 |  | 
B18 |  |  |  | 74 | 0.000769
